Experimental data reported in patent US20200255516A1 (JIANGSU HENGRUI MEDICINE, published 2020).
Substitutions are numbered along the chain they refer to. In names and notes the source's numbering stands.

T1: TIGIT fusion protein with Fc or mFc tag (human, UniProt Q495A1 22-141)
T1 construct: extracellular domain; also called TIGIT-Fc; TIGIT-mFc
T1 sequence (looked up): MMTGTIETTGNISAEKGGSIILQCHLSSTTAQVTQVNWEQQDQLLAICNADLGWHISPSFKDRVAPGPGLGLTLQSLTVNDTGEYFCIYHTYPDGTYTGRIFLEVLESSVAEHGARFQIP

T2: human TIGIT on SEB-activated human PBMC (human, UniProt Q495A1)
T2 construct: native, on the cell surface
T2 sequence (receptor chain, looked up): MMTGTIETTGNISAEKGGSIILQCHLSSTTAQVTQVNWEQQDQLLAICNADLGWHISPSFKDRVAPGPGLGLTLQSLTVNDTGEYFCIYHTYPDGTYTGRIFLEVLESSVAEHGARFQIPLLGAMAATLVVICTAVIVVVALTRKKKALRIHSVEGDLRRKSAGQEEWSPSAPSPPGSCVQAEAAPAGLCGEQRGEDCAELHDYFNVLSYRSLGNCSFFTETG

T3: human TIGIT (Sinobiological Co., Ltd., Cat. 10917-H08-H) (human, UniProt Q495A1 22-141)
T3 construct: also called huTIGIT; TIGIT-His
T3 sequence (looked up): T1 sequence (looked up)

T4: Full-length human TIGIT on CHO cells overexpressing TIGIT (human, UniProt Q495A1 22-244)
T4 construct: also called TIGIT-CHO cells; CHO cells overexpressing human TIGIT
T4 sequence: T2 sequence (receptor chain, looked up)

B1: h1708-05 (antibody, human IgG4 S228P, kappa, V domains shown)
VH: EVQLVQSGAEVKKPGASVKVSCKASGYTFTNYWMHWVRQAPGQGLEWMGRIDPDSTGSKYNEKFKTRVTMTVDTSTSTVYMELSSLRSEDTAVYYCAREGAYGYYFDYWGQGTLVTVSS
VL: DIQMTQSPSSLSASVGDRVTITCRASENIYSYLAWYQQKPGKSPKLLIYNARTLAEGVPSRFSGSGSGTDFTLTISSLQPEDFATYYCQYHSGSPLPFGGGTKVEIKR
notes: also called humanized TIGIT antibody h1708-05
B2: h1708-01 (antibody, human IgG4 S228P, kappa, V domains shown)
VH: B1 VH with V72R
VL: B1 VL with S43A
notes: also called humanized TIGIT antibody h1708-01
B3: h1708-03 (antibody, human IgG4 S228P, kappa, V domains shown)
VH: B1 VH with M48I, V79A
VL: B1 VL with S43A
notes: also called humanized TIGIT antibody h1708-03
B4: h1708-02 (antibody, human IgG4 S228P, kappa, V domains shown)
VH: B1 VH
VL: B1 VL with S43A
notes: also called humanized TIGIT antibody h1708-02
B5: h1708-04 (antibody, human IgG4 S228P, kappa, V domains shown)
VH: B1 VH with V72R
VL: B1 VL
notes: also called humanized TIGIT antibody h1708-04
B6: h1708-06 (antibody, human IgG4 S228P, kappa, V domains shown)
VH: B1 VH with M48I, V79A
VL: B1 VL
notes: also called humanized TIGIT antibody h1708-06
B7: h1711-01 (antibody, V domains shown)
VH: EVQLVQSGAEVKKPGSSVKVSCKASGGTFSNYWIGWVRQAPGQGLEWMGDIYPGGAYTNYNEKFKDRVTITADKSTSTAYMELSSLRSEDTAVYYCARGDYYDSSGRAMDYWGQGTLVTVSS
VL: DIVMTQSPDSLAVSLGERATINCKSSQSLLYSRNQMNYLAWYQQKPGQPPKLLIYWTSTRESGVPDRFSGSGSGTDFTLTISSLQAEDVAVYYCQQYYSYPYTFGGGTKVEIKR
B8: h1711-03 (antibody, human IgG4 S228P, kappa, V domains shown)
VH: B7 VH with G27Y, M48I
VL: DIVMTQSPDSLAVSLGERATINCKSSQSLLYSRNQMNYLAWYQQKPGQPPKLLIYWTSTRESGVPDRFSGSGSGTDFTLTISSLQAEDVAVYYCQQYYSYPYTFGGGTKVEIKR
B9: h1711-02 (antibody, human IgG4 S228P, kappa, V domains shown)
VH: B7 VH with M48I
VL: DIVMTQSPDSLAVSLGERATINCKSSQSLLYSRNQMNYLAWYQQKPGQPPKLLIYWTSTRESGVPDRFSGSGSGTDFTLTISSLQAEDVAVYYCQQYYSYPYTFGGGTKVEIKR
B10: h1707-02 (antibody, human IgG4 S228P, kappa, V domains shown)
VH: EVQLVESGGGLVQPGGSLRLSCAASGFTFSDYHMYWVRQAPGKGLEWVAYISKGGISTYYPDTVKGRFTISRDNAKNSLYLQMSRLRAEDTAVYYCARQSSYDFAMDYWGRGTLVTVSS
VL: DIQMTQSPSFLSASVGDRVTITCKASQDVGTSVAWYQQKPGKAPKLLIYWASARHTGVPSRFSGSGSGTDFTLTISSLQPEDFATYYCQQYSSYPLTFGQGTKLEIKR
notes: also called humanized TIGIT antibody h1707-02
B11: 22G2-H3Q (antibody, human IgG4 S228P, kappa, V domains shown)
VH: QVQLQESGPGLVKPSETLSLTCTVSGGSVSSGIYYWSWIRQPPGKGLEWIGYIYYSGSTNYNPSLKSRVTISVDTSKNQFSLKLSSVTAADTAVYYCARDYYVSGNYYNVDYYFFGVDVWGQGTTVTVSS
VL: EIVLTQSPATLSLSPGERATLSCRASQSVSSYLAWYQQKPGQAPRLLIYDASNRATGIPARFSGSGSGTDFTLTISSLEPEDFAVYYCQQRSNWPPLFTFGPGTKVDIKR
B12: h1709-10 (antibody, human IgG4 S228P, kappa, V domains shown)
VH: EVQLVQSGAEVKKPGASVKVSCKASGYTFTDYYMHWVRQAPGQGLEWMGLVYPYNDNTGYNRKFKGRVTMTVDTSTSTVYMELNSLRSEDTAVYYCARGGPSNWNYFDYWGQGTLVTVSS
VL: DIQMTQSPSSLSASVGDRVTITCKASQNVVTAVAWYQQKPGKSPKLLIYSASNRYTGVPDRFSGSGSGTDFTLTISSLQPEDFATYFCQQYTLYPLTFGGGTKVEIKR
notes: also called humanized TIGIT antibody h1709-10
B13: 10A7 hIgG4 (antibody, V domains shown)
VH: EVQLVESGGGLTQPGKSLKLSCEASGFTFSSFTMHWVRQSPGKGLEWVAFIRSGSGIVFYADAVRGRFTISRDNAKNLLFLQMNDLKSEDTAMYYCARRPLGHNTFDSWGQGTLVTVSS
VL: DIVMTQSPSSLAVSPGEKVTMTCKSSQSLYYSGVKENLLAWYQQKPGQSPKLLIYYASIRFTGVPDRFTGSGSGTDYTLTITSVQAEDMGQYFCQQGINNPLTFGDGTKLEIKR
B14: ch1711 (antibody, V domains shown)
VH: QVQLQQSGTELVRPGTSVKMSCKASGYTFTNYWIGWAKQRPGHGLEWIGDIYPGGAYTNYNEKFKDKATLTADKSSSTAYMQFSSLTSEDSAIYYCTRGDYYDSSGRAMDYWGQGTSVTVSS
VL: DIVMSQSPSSLAVSVGEKVSMSCKSSQSLLYSRNQMNYLAWYQQKPGQSPKLLIYWTSTRESGVPDRFTGSGSGTDFTLTISSVKAEDLAVYYCQQYYSYPYTFGGGTKLEIK
notes: also called chimeric antibody corresponding to m1711
B15: h1710-01 (antibody, human IgG4 S228P, kappa, V domains shown)
VH: EVQLVQSGAEVKKPGASVKVSCKASGYTFTNYYMHWVRQAPGQGLEWMGRIDPTSGATKYNDNFKGRVTMTRDTSTSTVYMELSSLRSEDTAVYYCAREGGFGYYFDYWGQGTTVTVSS
VL: DIQMTQSPSSLSASVGDRVTITCRTSENIFTYLAWYQQKPGKAPKLLIYNAKTFAEGVPSRFSGSGSGTDFTLTISSLQPEDFATYYCQHHYGIPLPFGQGTKLEIKR
notes: also called humanized TIGIT antibody h1710-01

Key:
[1] = target: T1, TIGIT fusion protein with Fc or mFc tag; assay: HTRF blocking assay: TIGIT-Fc or TIGIT-mFc with biotinylated CD155 as the blocked ligand, ratio 665/620
[2] = target: T5, cynoTIGIT-mFc (fusion protein of cynoTIGIT extracellular domain and mouse IgG2a Fc fragment) (cynomolgus); assay: SPR (Biacore T200), antibody held by Fc affinity capture, cynoTIGIT-mFc in mobile phase, 1:1 Langmuir fit
T5 construct: also called monkey TIGIT; cynomolgus TIGIT-mFc fusion protein
T5 sequence (chain, as listed by the source limits assumed): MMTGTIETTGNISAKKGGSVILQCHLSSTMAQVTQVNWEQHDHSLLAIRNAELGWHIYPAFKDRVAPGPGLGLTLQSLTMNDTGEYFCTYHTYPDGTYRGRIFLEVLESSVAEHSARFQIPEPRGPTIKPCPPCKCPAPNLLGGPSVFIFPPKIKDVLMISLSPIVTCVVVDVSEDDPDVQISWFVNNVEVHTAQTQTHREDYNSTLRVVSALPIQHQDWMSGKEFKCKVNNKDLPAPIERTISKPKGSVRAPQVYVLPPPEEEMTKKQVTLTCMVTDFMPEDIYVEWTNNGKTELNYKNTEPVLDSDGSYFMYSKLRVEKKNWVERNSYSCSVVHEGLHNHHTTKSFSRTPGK

[3] = target: T1, TIGIT fusion protein with Fc or mFc tag; assay: FACS blocking assay: TIGIT-mFc pre-incubated with the antibody, added to CHO cells overexpressing CD112 (blocked ligand), PE anti-mouse IgG, MFI
[4] = target: T2, human TIGIT on SEB-activated human PBMC; assay: flow cytometry on SEB-activated human PBMC, PE anti-human IgG, MFI
[5] = target: T3, human TIGIT (Sinobiological Co., Ltd., …); assay: SPR (Biacore T200), antibody captured via Protein A, huTIGIT in mobile phase, 1:1 Langmuir fit
[6] = target: T1, TIGIT fusion protein with Fc or mFc tag; assay: blocking cell ELISA: TIGIT-hFc or TIGIT-mFc (0.2 ug/ml) pre-mixed with the antibody, added to fixed CHO cells overexpressing CD155 (blocked ligand), OD450
[7] = target: T1, TIGIT fusion protein with Fc or mFc tag; assay: HTRF blocking assay: TIGIT-Fc or TIGIT-mFc with biotinylated CD155 as the blocked ligand, ratio 665/620; remark: listed apart in the source
[8] = target: T4, Full-length human TIGIT on CHO cells …; assay: FACS blocking assay on TIGIT-CHO cells; competitor CF633-labeled CD155-Fc at 2 ug/ml
[9] = target: T4, Full-length human TIGIT on CHO cells …; assay: cell ELISA on fixed CHO cells overexpressing human TIGIT
[10] = target: T1, TIGIT fusion protein with Fc or mFc tag; assay: ELISA: human TIGIT-Fc or TIGIT-mFc captured by coated anti-Fc antibody, HRP secondary antibody, OD450
[11] = target: T3, human TIGIT (Sinobiological Co., Ltd., …); assay: SPR (Biacore), captured antibody, TIGIT-His as analyte
[12] = target: T5, cynoTIGIT-mFc (fusion protein of …); assay: ELISA: cynomolgus TIGIT-Fc or TIGIT-mFc captured by coated anti-Fc antibody, HRP secondary antibody, OD450

Binder | IC50 (read off the curve) [1] | IC50 (read off the curve) [3] | Kd [5] | koff [5] | kon [5] | IC50 (read off the curve) [6] | IC50 [8] | EC50 [9] | EC50 (read off the curve) [10] | other results
B1 | ~1 nM |  |  |  |  |  |  |  |  | 
B2 | ~1 nM |  |  |  |  |  |  |  |  | 
B3 | ~1 nM |  |  |  |  |  |  |  |  | 
B4 | ~1 nM |  |  |  |  |  |  |  |  | 
B5 | ~1 nM | ~5 nM | 0.104 nM | 0.000183 s⁻¹ | 1.75e+06 M⁻¹ s⁻¹ | ~1 nM | 0.499 nM | 0.0848 nM | ~0.1 nM | Kd [2]: 0.285 nM; koff [2]: 0.000352 s⁻¹; kon [2]: 1.24e+06 M⁻¹ s⁻¹; EC50 (read off the curve) [4]: ~0.3 nM; IC50 (read off the curve) [7]: ~2 nM
B6 | ~1 nM |  |  |  |  |  |  |  |  | 
B7 |  |  |  |  |  |  |  |  |  | Kd [11]: 1.49 nM; koff [11]: 0.00209 s⁻¹; kon [11]: 1.4e+06 M⁻¹ s⁻¹
B8 |  |  |  |  |  |  |  |  |  | Kd [11]: 0.556 nM; koff [11]: 0.000723 s⁻¹; kon [11]: 1.3e+06 M⁻¹ s⁻¹
B9 |  |  |  |  |  |  |  |  |  | Kd [11]: 1.24 nM; koff [11]: 0.00171 s⁻¹; kon [11]: 1.38e+06 M⁻¹ s⁻¹
B10 |  | ~5 nM | 0.108 nM | 0.000188 s⁻¹ | 1.74e+06 M⁻¹ s⁻¹ | ~1 nM | 0.482 nM | 0.0872 nM | ~0.1 nM | EC50 (read off the curve) [4]: ~0.3 nM; binding result [12]: binds; IC50 (read off the curve) [7]: ~3 nM
B11 |  | ~5 nM | 0.709 nM | 0.000379 s⁻¹ | 535000 M⁻¹ s⁻¹ | ~1 nM |  |  |  | Kd [2]: 0.166 nM; koff [2]: 0.000404 s⁻¹; kon [2]: 2.44e+06 M⁻¹ s⁻¹
B12 |  | ~5 nM | 0.104 nM | 0.000259 s⁻¹ | 2.49e+06 M⁻¹ s⁻¹ | ~1 nM | 0.427 nM | 0.0568 nM | ~0.1 nM | Kd [2]: 0.3 nM; koff [2]: 0.000415 s⁻¹; kon [2]: 1.39e+06 M⁻¹ s⁻¹; EC50 (read off the curve) [4]: ~0.3 nM; EC50 (read off the curve) [12]: ~0.1 nM; IC50 (read off the curve) [7]: ~3 nM
B13 |  |  |  |  |  |  | 0.678 nM | 0.109 nM | ~0.2 nM | 
B14 |  |  |  |  |  |  |  |  |  | Kd [11]: 0.249 nM; koff [11]: 0.000455 s⁻¹; kon [11]: 1.83e+06 M⁻¹ s⁻¹
B15 |  | ~5 nM | 0.147 nM | 0.00024 s⁻¹ | 1.63e+06 M⁻¹ s⁻¹ | ~1 nM | 0.468 nM | 0.0769 nM | ~0.1 nM | Kd [2]: 0.322 nM; koff [2]: 0.000371 s⁻¹; kon [2]: 1.15e+06 M⁻¹ s⁻¹; EC50 (read off the curve) [4]: ~0.3 nM; EC50 (read off the curve) [12]: ~0.1 nM; IC50 (read off the curve) [7]: ~2 nM
